Data from US20130309248A1 (CRUCELL HOLLAND B V, published 2013).

Key:
Experiment in all cases: cell-based or functional assay
[1] = target: T1, HA of virus A/Panama/2000/1999 (H3N2) (influenza A virus (H3N2))
[2] = target: T2, HA of virus A/Johannesburg/33/94 (H3N2) (influenza A virus (H3N2))
[3] = target: T3, HA of virus A/Wisconsin/67/2005 (H3N2) (influenza A virus (H3N2))
[4] = target: T4, HA of virus A/Hiroshima/52/2005 (H3N2) (influenza A virus (H3N2))
[5] = target: T5, HA of virus A/Mallard/Netherlands/12/2000 (H7N3) (influenza A virus (H7N3))
[6] = target: T6, HA of virus A/Chick/Germany/N/49 (H10) (influenza A virus (H10))
[7] = target: HA of virus A/New Caledonia/20/1999 (H1N1) (influenza A virus (H1N1))
[8] = target: T1, HA of virus A/Panama/2000/1999 (H3N2); remark: listed apart in the source
[9] = target: HA of virus A/Brisbane/59/2007 (H1N1) (influenza A virus (H1N1))
[10] = target: T2, HA of virus A/Johannesburg/33/94 (H3N2); remark: listed apart in the source
[11] = target: T3, HA of virus A/Wisconsin/67/2005 (H3N2); remark: listed apart in the source
[12] = target: T4, HA of virus A/Hiroshima/52/2005 (H3N2); remark: listed apart in the source
[13] = target: T5, HA of virus …; remark: listed apart in the source
[14] = target: HA of virus A/Solomon Islands/IVR-145 (H1N1) (influenza A virus (H1N1))
[15] = target: T6, HA of virus A/Chick/Germany/N/49 (H10); remark: listed apart in the source

B1: CR8041 (antibody, V domains shown)
VH: QVQLVQSGAEVKKPGASVKVSCQASGYTFTSFGLSWVRQAPGQGPEWMGWISAYNGEIKYAQKFQGRVSMTTDTSTRTAYMEVRSLRPDDTAVYYCAREPPLYFSSWSLDF
VL: EIVLTQSPGTLSLSPGERATLSCRASQSVSSNYLAWFQQKPGQAPRLLIYGASRRATGIPDRFSGSGSGTDFTLTISRLEPEDFAVYYCQQYDSSPRT
SK50 titer [1]: 5 µg/mL
SK50 titer [2]: 1.6 µg/mL
SK50 titer [3]: 3.3 µg/mL
SK50 titer [4]: 3.5 µg/mL
SK50 titer [5]: 38 µg/mL
SK50 titer [6]: 37.2 µg/mL
Neutralization titer SK50 [7]: > 40 µg/mL
Neutralization titer SK50 [8]: 2.99 µg/mL
Neutralization titer SK50 [9]: > 40 µg/mL
Neutralization titer SK50 [10]: 1.69 µg/mL
Neutralization titer SK50 [11]: 3.99 µg/mL
Neutralization titer SK50 [12]: 4.75 µg/mL
Neutralization titer SK50 [13]: 1.1 µg/mL
Neutralization titer SK50 [14]: > 40 µg/mL
Neutralization titer SK50 [15]: 25 µg/mL
